Molecular target: N90-VRC38.01 IgG (human)
Test: SPR

Substance “BG505.DS.T332N.SOSIP.664 gp140 trimer (complex)” has a fold stronger binding of the IgG than of the Fab greater than 7 fold.
